Measured values as given in patent publication US20230071609A1 (Genentech, published 2023).

Legend:
[1] = target: T1, circulating APOL1 in normal human serum (human, UniProt O14791 28-398); test: summary of the Examples: trypanolysis blocking as proxy for serum APOL1
T1 construct: mature; Serum of healthy volunteers; lipoprotein-associated; also called serum APOL1; HDL APOL1
T1 sequence (looked up): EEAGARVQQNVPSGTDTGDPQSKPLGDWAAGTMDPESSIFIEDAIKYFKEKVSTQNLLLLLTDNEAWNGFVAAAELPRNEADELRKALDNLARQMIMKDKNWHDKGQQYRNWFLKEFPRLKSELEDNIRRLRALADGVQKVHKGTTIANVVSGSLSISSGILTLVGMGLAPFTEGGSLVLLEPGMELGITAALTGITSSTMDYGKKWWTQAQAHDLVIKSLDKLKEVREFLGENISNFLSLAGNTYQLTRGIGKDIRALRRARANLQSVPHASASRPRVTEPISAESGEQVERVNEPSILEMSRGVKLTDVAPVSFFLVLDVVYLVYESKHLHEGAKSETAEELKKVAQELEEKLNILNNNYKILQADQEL
Procedure: The trypanolysis assay used herein to text specificity of antibodies for serum APOL1 is as follows. Trypanosoma brucei brucei were obtained from ATCC and cultured in HMI-9 media containing IMDM (Genentech), heat-inactivated (56° C. for 30 min) FBS (Seradigm IXL9/06807/GEN), 1% serum plus (Sigma 14008C), HMI-9 (Genentech) and 1% hypoxanthine (Genentech). Trypanosome lysis was performed by treating 1×10⁵ Trypanosomes with serial dilutions of NHS or recombinant APOL1 for 16 h in a total of 100 μl. Live cell read out was done by the Alamar Blue assay as per the manufacturer's protocol, (Thermo Fisher, DAL1100). Briefly 10 μl of Alamar Blue was added to each well, incubated at 37° C. for 4 h. Red fluorescence, indicating live trypanosomes, was measured on a SpectraMax® fluorimeter powered by SoftMAX® PRO with excitation at 530 nm and emission 590 nm. For the antibody blocking assay, 1% normal human serum was preincubated with 1-10 μg/ml of anti-APOL1 antibody or media at room temperature for 20 minutes followed by addition of trypanosomes. After 16 h, the Alamar Blue assay was performed as above and background values for media only were subtracted and % blocking calculated by normalizing to no antibody control.
Trypanosoma brucei brucei were obtained under MTA from ATCC and cultured in HMI-9 media containing IMDM (Genentech), heat-inactivated (56° C. for 30 min) FBS (Seradigm IXL9/06807/GEN), 1% serum plus (Sigma 14008C), HMI-9 (Genentech) and 1% hypoxanthine (Genentech). Trypanosome lysis was performed by treating 1×10⁵ Trypanosomes with serial dilutions of NHS or recombinant APOL1 for 16 h in a total of 100 μl. Live cell read out was done by the Alamar Blue assay as per the manufacturer's protocol (30) (Thermo Fisher, DAL1100). Briefly 10 μl of Alamar Blue was added to each well, incubated at 37° C. for 4 h. Red fluorescence, indicating live trypanosomes, was measured on a SpectraMax fluorimeter powered by SoftMAX PRO with excitation at 530 nm and emission 590 nm. For the antibody blocking assay, 1% normal human serum was preincubated with 1-10 μg/ml of anti-APOL1 antibody or media at room temperature for 20 mins followed by addition of trypanosomes.

[2] = target: T2, endogenous human APOL1 (wild-type immortalized podocytes; also JHH-1 cells, kidney and liver tissue) (human, UniProt O14791 28-398); test: summary of the Examples: podocyte flow cytometry
T2 construct: whole, on cells; Cell or tissue and permeabilization are told under assay; also called podocyte APOL1; endogenous APOL1
T2 sequence (looked up): T1 sequence (looked up)
Procedure: (§1) Cells were harvested with 5 mM EDTA in PBS, washed once with growth media and twice with PBS. Approximately 0.5×10⁶/m1 of cells resuspended in PBS were incubated with anti-APOL1 antibodies for 1 h on ice. Following two PBS washes, 2 μg/ml of Alexa488 anti-mouse or anti-rabbit (Invitrogen A11029 and A21206, respectively) was used for 1 h on ice for detection. Cells were washed twice in PBS and resuspended in PBS with 1 μg/ml propidium iodide. Signals were read in a FACSCalibur3 (Becton Dickinson), with the exception of FIG. 8A and FIG. 14, which used a FACSCelesta, and data was analyzed using FlowJo v8.4.5. Mean fluorescence intensities were plotted in PRISM v7 after subtraction of secondary antibody alone background. For low pH experiments, cells were incubated with the antibodies in the presence of PBS pH 7.0 or PBS pH 5.5 for an hour on ice and detected with secondary antibodies at neutral pH.

[3] = target: T3, APOL1 very C-terminal peptide aa 376-398 (human); test: overlapping ~20-mer peptides (SPR, western blot); antibody named in paragraph 192
T3 peptide: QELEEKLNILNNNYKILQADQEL
Procedure: (§2) Following three TBST washes, anti-mouse (GE Healthcare NA931V, 1:3000) or anti-rabbit HRP (Jackson 711-036-152, 1:8000) was added as secondary antibody. After 1 h, membranes were washed and protein detected using ECL prime (Amersham RPN2232) exposed to MR film (Kodak). Anti-actin HRP-conjugated antibody (clone 13E5, Cell Signaling Technologies 5125S at 1:5000) or calnexin (Abcam Ab22595 at 1:1000) was used as a loading control. For peptide mapping, 2 μl of 1 mM peptides in DMSO were boiled in 5× sample buffer and loaded on 10% Tris-Glycine gel and run using MES buffer. Cell pellets of Sf9 lysates were lysed in native RIPA (NP-40) lysis buffer and run on 10% Tris-Glycine gels.
A 96×96 array-based SPR imaging system (Carterra USA) was used for epitope mapping of anti-ApoL1 monoclonal antibodies. Briefly, purified monoclonal hybridoma antibodies were diluted at 10 μg/ml in 10 mM sodium acetate buffer pH 4.5. Using amine coupling, antibodies were directly immobilized onto a SPR sensorprism CMD 200M chip (XanTec Bioanalytics, Germany) using a Continuous Flow Microspotter (Carterra, USA) to create an array of antibodies. After coupling, the antibodies were blocked with ethanolamine, and primed with running buffer (10 mM HEPES, pH 7.4, 150 mM NaCl, 3 mM EDTA, and 0.005% Tween 20). Epitope mapping was performed by flowing 100 nM of different peptides of APOL1 across the immobilized anti-APOL1 antibodies on the biosensor chip at 25° C. in a running buffer of 10 mM HEPES, pH 7.4, 150 mM NaCl, 3 mM EDTA, and 0.005% Tween 20. After each flow through of the APOL1 peptide, the chip surface was regenerated using 10 mM glycine, pH 2.0.

[4] = target: T4, APOL1-G2 (deletion of N388 and Y389) (human, UniProt O14791 29-398); test: flow cytometry, live CHO cells expressing full length native iAPOL1-G2
T4 construct: expressed in CHO cells (flow cytometry, lysates), COS cells and podocytes; also called iAPOL1-G2; APOL-G2
T4 sequence: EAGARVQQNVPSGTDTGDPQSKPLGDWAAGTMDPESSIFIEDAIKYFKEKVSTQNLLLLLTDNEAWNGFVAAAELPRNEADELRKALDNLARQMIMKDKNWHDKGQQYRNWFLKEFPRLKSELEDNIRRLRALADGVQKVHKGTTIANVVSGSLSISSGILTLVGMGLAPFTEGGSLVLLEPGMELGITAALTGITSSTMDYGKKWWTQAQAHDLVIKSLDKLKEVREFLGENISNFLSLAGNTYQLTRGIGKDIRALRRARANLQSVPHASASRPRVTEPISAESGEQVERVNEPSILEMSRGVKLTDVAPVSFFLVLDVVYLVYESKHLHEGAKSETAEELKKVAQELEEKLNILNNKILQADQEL

[5] = target: T2, endogenous human APOL1 (wild-type …); test: flow cytometry, live WT and iAPOL1-G0 podocytes
Procedure: as §1
More importantly, there were also differential APOL1 accessibilities between serum APOL1 and kidney disease-relevant podocytes (FIG. 18B). Some antibodies bound surface APOL1 in WT and iAPOL1 podocytes (FIG. 6A, 6B), but not circulating APOL1 (as judged by lack of trypanolytic blockade, FIG. 6C) and vice versa. […] Conversely, 3.3B6 and 4.17A5 were among the top trypanolytic blockers, but recognized the podocyte surface relatively weakly. […]

APOL1 peptide aa 364-385 = target: T5, APOL1 peptide aa 364-385 (human); test: overlapping ~20-mer peptides (SPR, western blot)
T5 peptide: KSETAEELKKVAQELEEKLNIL
Procedure: as §2
A 96×96 array-based SPR imaging system (Carterra USA) was used for epitope mapping of anti-ApoL1 monoclonal antibodies. Briefly, purified monoclonal hybridoma antibodies were diluted at 10 μg/ml in 10 mM sodium acetate buffer pH 4.5. Using amine coupling, antibodies were directly immobilized onto a SPR sensorprism CMD 200M chip (XanTec Bioanalytics, Germany) using a Continuous Flow Microspotter (Carterra, USA) to create an array of antibodies. After coupling, the antibodies were blocked with ethanolamine, and primed with running buffer (10 mM HEPES, pH 7.4, 150 mM NaCl, 3 mM EDTA, and 0.005% Tween 20). […]

B1: antibody 4.11A10 (antibody, V domains shown)
VH: EVQLQQSGPELVKTGASVKISCKASGYSFTGYFMHWVKQSHGKSLEWIGYISCYNGVSVYNQRFKGKATFTIDTSSSTAYMQFNSLTSEDSAVYYCARDVLRYPRYAVDYWGQGTSVTVSS
VL: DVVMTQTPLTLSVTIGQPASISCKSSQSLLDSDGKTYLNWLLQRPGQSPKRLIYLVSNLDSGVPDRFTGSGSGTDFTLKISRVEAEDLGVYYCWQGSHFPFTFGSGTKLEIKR
notes: Mouse mAb, cloned as murine IgG2a LALAPG
[1]
  binding result: binds
[2]
  binding result: binds
[3]
  binding result: binds
[4]
  binding result: no binding (tested: 5 µg/ml)

B2: antibody 4.11H11 (antibody, V domains shown)
VH: EVQVQQSGPELVKPGASMKISCKASGYSFIVYTMNWVKQSHGKNLEWIGLINPYNGGTIYNRKFKGKATLTVDKSSSTAYLELLSLTSEDSAVYYCARGALYRYEGAMDYWGQGTSVIVSS
VL: QIVLSQFPAILSASPGEKVTMTCRASSSVIYVHWYQQKPGSSPKPWIYATSNLASGVPARFSGSGSGTSHSLTISRLEAEDTATYYCQQWSSNPLTFGAGTKLEIKR
notes: as for B1
[1]
  binding result: binds
[2]
  binding result: binds
[3]
  binding result: binds
[4]
  binding result: no binding (tested: 5 µg/ml)

B3: antibody 3.3B6 (antibody, V domains shown)
VH: QVQLQQSGAELARPGASVKLSCKASGYTFTSHWMQWLKQRPGQGLEWIGAIYPGDGDTKFTQKFKDKATLTADKSSTTAYMQLSSLASEDSAVYYCARENLYGYYFDYWGQGTTLTVSS
VL: QAVVTQESALTTSPGETVTLTCRSSTGAVTSGNFANWVQEKPDHLFTGLIGGADNRAPGVPARFSGSLIGDKAALIITGAQTEDEAIYFCALWYSDHWVFGGGTKLTVLG
notes: as for B1
[5]
  binding result: binds

B4: antibody 4.29C4 (antibody, V domains shown)
VH: QVQLQQPGAELVRPGASVKLSCKASGYSFANYWMNWVKQRPGQGLEWIGMIHPSDSESRLSQRFKDKATLTVDKSSSTAYMQLNSPTSEDSAVYYCARLDYWGQGTSVTVSS
VL: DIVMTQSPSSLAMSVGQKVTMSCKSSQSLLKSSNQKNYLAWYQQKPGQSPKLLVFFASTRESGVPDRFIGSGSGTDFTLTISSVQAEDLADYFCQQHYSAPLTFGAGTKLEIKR
notes: as for B1
APOL1 peptide aa 364-385
  binding result: binds
